Data taken from article PMC7616783, “A combined structural and biochemical approach reveals translocation and stalling of UvrB on the DNA lesion as a mechanism of damage verification in bacterial nucleotide excision repair” (DNA repair, 2019).

B1: Thermus thermophilus UvrB (natural protein, UniProt Q56243 1-665, looked up)
chain: MTFRYRGPSPKGDQPKAIAGLVEALRDGERFVTLLGATGTGKTVTMAKVIEALGRPALVLAPNKILAAQLAAEFRELFPENAVEYFISYYDYYQPEAYVPGKDLYIEKDASINPEIERLRHSTTRSLLTRRDVIVVASVSAIYGLGDPREYRARNLVVERGKPYPREVLLERLLELGYQRNDIDLSPGRFRAKGEVLEIFPAYETEPIRVELFGDEVERISQVHPVTGERLRELPGFVLFPATHYLSPEGLEEILKEIEKELWERVRYFEERGEVLYAQRLKERTLYDLEMLRVMGTCPGVENYARYFTGKAPGEPPYTLLDYFPEDFLVFLDESHVTVPQLQGMYRGDYARKKTLVDYGFRLPSALDNRPLRFEEFLERVSQVVFVSATPGPFELAHSGRVVEQIIRPTGLLDPLVRVKPTENQILDLMEGIRERAARGERTLVTVLTVRMAEELTSFLVEHGIRARYLHHELDAFERQALIRDLRLGHYDCLVGINLLREGLDIPEVSLVAILDADKEGFLRSERSLIQTIGRAARNARGEVWLYADRVSEAMQRAIEETNRRRALQEAYNLEHGITPETVRKEVRAVIRPEGYEEAPLEADLSGEDLRERIAELELAMWQAAEALDFERAARLRDEIRALEARLQGVRAPEPVPGGRKRKRR
notes: theoretical MW printed as 76.2 kDa; Two UvrB monomers stand in the complex, one on each side of the UvrA dimer; The complex is heterologous (T. maritima UvrA with T. thermophilus UvrB); also called Tt-UvrB; Thermus thermophilus (Tt) UvrB; source: BL21-CodonPlus(DE3)-RIL, pET28 based plasmid, purified (nickel resin, HRV 3C digestion, nickel resin, gel filtration)
B2: Thermotoga maritima UvrA (natural protein)
chain: MNEIVVKGARVHNLKNITVRIPKNRLVVITGVSGSGKSSLAMDTIYAEGQRRYLESLSTYARQFLGNLKKPDVDEIEGLSPAIAIDQKTVSHNPRSTVGTVTEIYDYLRVLYARIGKAHCPECGRPLEKKSIDEILQDLFNSFKEGSRIYILAPVATEKKGTFKKEIEEFISKGFARIEIDGEIYRLEEVPELDKNKRHTVKLVVDRLILETRNEHRILDSLELAMREGKGFVEIRNVDTGESKIFSENLMCPVCGIGFPEITPKLFSFNSPYGACPNCHGLGFTFEVDPSLVIDEEKSVLEGAIIPYRWDRRLSRWVAREIEKRGVSPHLPFKDLPEDVKEFILYGDDRFEGVVPKVQRWHRETESPEMKEWLEKNFIVQRTCSVCGGRRLNREALSVKINGLNIHEFTELSISEELEFLKNLNLTEREREIVGELLKEIEKRLEFLVDVGLEYLTLSRSATTLSGGESQRIRLATQIGSGLTGVIYVLDEPTIGLHPRDTERLIKTLKKLRDLGNTVIVVEHDEEVIRNADHIIDIGPGGGTNGGRVVFQGTVDELLKNPDSSLTGEYLSGKRKITVNKTRRLPYASLKIKGVRHNNLKNIDVEIPLGVFVCVTGVSGSGKSSLVMETLYPALMNLLHKTKLPAGEFDSIEGHENIDKMIAIDQSPIGRTPRSNPATYTKVFDEIRSLFAMTPAAKARGYNKSRFSFNLKGGRCEACQGQGYVKIEMLFLPDVYVECDVCKGKRYNRETLEITYKGKNISDILDMTVDEALEFFKNIPSIKRTLQVLHDVGLGYVKLGQPATTLSGGEAQRIKLASELRKRDTGRTLYILDEPTVGLHFEDVRKLVEVLHRLVDRGNTVIVIEHNLDVIKNADHIIDLGPEGGKEGGYIVATGTPEEIAKNPHSYTGRFLKNVL
notes: UvrA, Thermotoga maritima; theoretical MW of the dimer printed as 205.8 kDa; the modelling section counts residues 1-916; In the assays it stood with fluorescein-modified DNA, ADP and Mg2+; also called Tm-UvrA; T. maritima (Tm) UvrA; source: BL21 STAR (DE3), pET28-SUMO based plasmid, purified (nickel resin, Ulp1 digestion, nickel resin, gel filtration)

Tests used:
Thermotoga maritima UvrA = biological target: B2; assay: SEC-MALS; UvrA dimer (2.5 mg/ml) mixed 1:1 with self-annealed DNA (32 bp ds region, two fluorescein-modified thymines, 10 nt 5' overhangs), UvrB at two-fold molar excess over the UvrA dimer; dialysed at 4 °C against 20 mM HEPES pH 7.0, 150 mM NaCl, 5% glycerol, 1 mM DTT, 10 mM MgCl2; 1 mM ADP added; BioSuite High Resolution SEC column with MALS detector; conditions: both partners purified
[1] = biological target: the molecule itself; assay: as above

Row | stoichiometry N (Thermotoga maritima UvrA) [UvrB per UvrA dimer] | Binder | stoichiometry N [1]
1 | 2 | B1 | 
2 |  | B2 | 2
